Patent publication US20220243184, “ENGINEERED Cas-Transposon SYSTEM FOR PROGRAMMABLE AND SITE-DIRECTED DNA TRANSPOSITIONS” (THE TRUSTEES OF COLUMBIA UNIVERSITY IN THE CITY OF NEW YORK, published 2022)

Target: Himar1C9-XTEN-dCas9 (Himar-dCas9) (synthetic fusion (Haematobia irritans …, UniProt Q99ZW2 SEQ:1-1732))
Experiment: no gRNA; baseline insertion hotspot
Settings: tags: C-terminal 6xHis; chain copies: 2 inferred
Experimental: FIG. 2A through FIG. 2C. Himar-dCas9 specificity is dependent on gRNA spacing and target site. (FIG. 2A) Illustration of gRNA strand orientation and spacings to TA insertion site gRNA1 (SEQ ID NO: 53) and gRNA2 (SEQ ID No: 54) and target DNA (SEQ ID No: 55). (FIG. 2B) PCR analysis of transposon-target junctions from in vitro reactions containing 30 nM Himar-dCas9/gRNA complex, 2.27 nM transposon donor DNA, and 2.27 nM target DNA. Reactions (n=3) were run using gRNAs with spacings between 5 and 18 bp from the TA insertion site. Non-targeting gRNA (gRNA_5), no gRNA, and no transposase controls were also performed. Arrowheads indicate expected site-specific PCR products for each gRNA. Error bars indicate standard deviation. (FIG. 2C) Transposon sequencing results for reactions with no gRNAs (left, n=4) or with gRNA_4 (n=3), gRNA_8 (n=3), gRNA_12 (n=3), or gRNA_5 (n=3). The baseline random distribution of transposons along the recipient plasmid in each panel with a gRNA is shown in light gray.
To assess the distribution of transposon insertions around the target pGT-B1 plasmid, transposon sequencing was performed on transposition products resulting from three GFP-targeting gRNAs (gRNA_4, gRNA_8, and gRNA_12), a non-targeting gRNA, and no gRNA (FIG. 2C and FIG. 8). […]

B1: pGT-B1 position 5999 T/A-rich insertion site (dsDNA)
DNA 1: GCGAATTTTAAAATTCGC
DNA 2: GCGAATTTTAAAATTCGC
B1: binds.
